B1: recombinant human erythroferrone variant with a VPFQ insertion (ERFE^VPFQ) (natural protein, UniProt Q4G0M1 29-354, looked up)
chain: SPEPGAPSRSRARREPPPGNELPRGPGESRAGPAARPPEPTAERAHSVDPRDAWMLFVRQSDKGVNGKKRSRGKAKKLKVPFQFGLPGPPGPPGPQGPPGPIIPPEALLKEFQLLLKGAVRQRERAEPEPCTCGPAGPVAASLAPVSATAGEDDDDVVGDVLALLAAPLAPGPRAPRVEAAFLCRLRRDALVERRALHELGVYYLPDAEGAFRRGPGLNLTSGQYRAPVAGFYALAATLHVALGEPPRRGPPRPRDHLRLLICIQSRCQRNASLEAIMGLESSSELFTISVNGVLYLQMGQWTSVFLDNASGCSLTVRSGSHFSAVLLGV
B2: recombinant human erythroferrone, wild type (ERFE^WT) (natural protein, UniProt Q4G0M1 29-354, looked up)
chain: SPEPGAPSRSRARREPPPGNELPRGPGESRAGPAARPPEPTAERAHSVDPRDAWMLFVRQSDKGVNGKKRSRGKAKKLKFGLPGPPGPPGPQGPPGPIIPPEALLKEFQLLLKGAVRQRERAEPEPCTCGPAGPVAASLAPVSATAGEDDDDVVGDVLALLAAPLAPGPRAPRVEAAFLCRLRRDALVERRALHELGVYYLPDAEGAFRRGPGLNLTSGQYRAPVAGFYALAATLHVALGEPPRRGPPRPRDHLRLLICIQSRCQRNASLEAIMGLESSSELFTISVNGVLYLQMGQWTSVFLDNASGCSLTVRSGSHFSAVLLGV

Molecular target: the molecule itself
Assay: SDS-PAGE in reducing and non-reducing conditions

Protein | stoichiometry N
B1 | 3
B2 | 3
